Results as given in publication PMC6702053 (Developmental cell, 2019).
Positions count from the first letter of the chain named.

What was measured:
Test in all cases: pull-down
[1] = target: T1, GST-PI31-S168E (phospho-mimetic mutant) (Drosophila melanogaster, UniProt Q9V637 1-270, S168E)
T1 sequence (looked up): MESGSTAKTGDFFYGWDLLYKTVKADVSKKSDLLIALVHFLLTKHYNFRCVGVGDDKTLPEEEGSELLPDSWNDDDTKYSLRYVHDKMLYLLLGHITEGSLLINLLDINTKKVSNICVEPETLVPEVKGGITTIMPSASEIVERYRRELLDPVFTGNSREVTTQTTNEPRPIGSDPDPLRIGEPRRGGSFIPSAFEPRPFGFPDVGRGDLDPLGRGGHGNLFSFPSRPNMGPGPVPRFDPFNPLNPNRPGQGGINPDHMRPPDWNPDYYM

[2] = target: T2, GST-PI31-S168D (phospho-mimetic mutant) (Drosophila melanogaster, UniProt Q9V637 1-270, S168D)
T2 sequence (looked up): T1 sequence (looked up) with E168D

[3] = target: T3, GST-tagged wild-type PI31 (GST-PI31-WT) (Drosophila melanogaster, UniProt Q9V637 1-270)
T3 sequence (looked up): T1 sequence (looked up) with E168S

Measured: binding result

B1: recombinant FLAG-dDYNLL1 expressed in E. coli (natural protein, Drosophila melanogaster, UniProt Q24117 1-89, looked up)
chain: MSDRKAVIKNADMSEEMQQDAVDCATQALEKYNIEKDIAAYIKKEFDKKYNPTWHCIVGRNFGSYVTHETRHFIYFYLGQVAILLFKSG
binds: [1] | [2] | [3]
